Experimental data published in patent US20110118131A1 (published 2011).

Molecular target: T1, IL-1beta (UniProt P01584 117-269)
T1 construct: also called IL-1β
Assay: Biacore

| Binder | fold difference in affinity vs parental [fold] | binding result |
| --- | --- | --- |
| XPA23 Fab, heavy chain G56R (Fab, V domains shown) VH: EVQLLESGGGLVQPGGSLRLSCAASGFTFSKYFMFWVRQAPGKGLEWVSVISPSGRMTRYADSVKGRFTISRDNSKNTLYLQMNSLRAEDTAVYYCARVGYGGNSDYWGQGTLVTVSS VL: DIQMTQSPSSVSASVGDRLTIICRASQDINRWLAWYQQTPGNAPKLLIHSATSLQSGVPSRFSGSGSGTDFTLTINSLQPEDFATYYCQQADSFPLTFGGGTKVEIK | 2.11 | – |
| XPA23 Fab, heavy chain G102Y (Fab, V domains shown) VH: EVQLLESGGGLVQPGGSLRLSCAASGFTFSKYFMFWVRQAPGKGLEWVSVISPSGGMTRYADSVKGRFTISRDNSKNTLYLQMNSLRAEDTAVYYCARVGYYGNSDYWGQGTLVTVSS VL: DIQMTQSPSSVSASVGDRLTIICRASQDINRWLAWYQQTPGNAPKLLIHSATSLQSGVPSRFSGSGSGTDFTLTINSLQPEDFATYYCQQADSFPLTFGGGTKVEIK | – | no binding |
| XPA23 Fab, heavy chain G102R (Fab, V domains shown) VH: EVQLLESGGGLVQPGGSLRLSCAASGFTFSKYFMFWVRQAPGKGLEWVSVISPSGGMTRYADSVKGRFTISRDNSKNTLYLQMNSLRAEDTAVYYCARVGYRGNSDYWGQGTLVTVSS VL: DIQMTQSPSSVSASVGDRLTIICRASQDINRWLAWYQQTPGNAPKLLIHSATSLQSGVPSRFSGSGSGTDFTLTINSLQPEDFATYYCQQADSFPLTFGGGTKVEIK | – | no binding |
| XPA23 Fab, heavy chain G100Q (Fab, V domains shown) VH: EVQLLESGGGLVQPGGSLRLSCAASGFTFSKYFMFWVRQAPGKGLEWVSVISPSGGMTRYADSVKGRFTISRDNSKNTLYLQMNSLRAEDTAVYYCARVQYGGNSDYWGQGTLVTVSS VL: DIQMTQSPSSVSASVGDRLTIICRASQDINRWLAWYQQTPGNAPKLLIHSATSLQSGVPSRFSGSGSGTDFTLTINSLQPEDFATYYCQQADSFPLTFGGGTKVEIK | – | no binding |
| XPA23 Fab, heavy chain G102N (Fab, V domains shown) VH: EVQLLESGGGLVQPGGSLRLSCAASGFTFSKYFMFWVRQAPGKGLEWVSVISPSGGMTRYADSVKGRFTISRDNSKNTLYLQMNSLRAEDTAVYYCARVGYNGNSDYWGQGTLVTVSS VL: DIQMTQSPSSVSASVGDRLTIICRASQDINRWLAWYQQTPGNAPKLLIHSATSLQSGVPSRFSGSGSGTDFTLTINSLQPEDFATYYCQQADSFPLTFGGGTKVEIK | 1.17 | – |
| XPA23 Fab, heavy chain G102H (Fab, V domains shown) VH: EVQLLESGGGLVQPGGSLRLSCAASGFTFSKYFMFWVRQAPGKGLEWVSVISPSGGMTRYADSVKGRFTISRDNSKNTLYLQMNSLRAEDTAVYYCARVGYHGNSDYWGQGTLVTVSS VL: DIQMTQSPSSVSASVGDRLTIICRASQDINRWLAWYQQTPGNAPKLLIHSATSLQSGVPSRFSGSGSGTDFTLTINSLQPEDFATYYCQQADSFPLTFGGGTKVEIK | – | no binding |
| XPA23 Fab, heavy chain G56Y (Fab, V domains shown) VH: EVQLLESGGGLVQPGGSLRLSCAASGFTFSKYFMFWVRQAPGKGLEWVSVISPSGYMTRYADSVKGRFTISRDNSKNTLYLQMNSLRAEDTAVYYCARVGYGGNSDYWGQGTLVTVSS VL: DIQMTQSPSSVSASVGDRLTIICRASQDINRWLAWYQQTPGNAPKLLIHSATSLQSGVPSRFSGSGSGTDFTLTINSLQPEDFATYYCQQADSFPLTFGGGTKVEIK | 1.27 | – |
| XPA23 Fab, heavy chain G102K (Fab, V domains shown) VH: EVQLLESGGGLVQPGGSLRLSCAASGFTFSKYFMFWVRQAPGKGLEWVSVISPSGGMTRYADSVKGRFTISRDNSKNTLYLQMNSLRAEDTAVYYCARVGYKGNSDYWGQGTLVTVSS VL: DIQMTQSPSSVSASVGDRLTIICRASQDINRWLAWYQQTPGNAPKLLIHSATSLQSGVPSRFSGSGSGTDFTLTINSLQPEDFATYYCQQADSFPLTFGGGTKVEIK | – | no binding |
| XPA23 Fab, heavy chain G100K (Fab, V domains shown) VH: EVQLLESGGGLVQPGGSLRLSCAASGFTFSKYFMFWVRQAPGKGLEWVSVISPSGGMTRYADSVKGRFTISRDNSKNTLYLQMNSLRAEDTAVYYCARVKYGGNSDYWGQGTLVTVSS VL: DIQMTQSPSSVSASVGDRLTIICRASQDINRWLAWYQQTPGNAPKLLIHSATSLQSGVPSRFSGSGSGTDFTLTINSLQPEDFATYYCQQADSFPLTFGGGTKVEIK | – | no binding |
| XPA23 Fab, heavy chain G100D (Fab, V domains shown) VH: EVQLLESGGGLVQPGGSLRLSCAASGFTFSKYFMFWVRQAPGKGLEWVSVISPSGGMTRYADSVKGRFTISRDNSKNTLYLQMNSLRAEDTAVYYCARVDYGGNSDYWGQGTLVTVSS VL: DIQMTQSPSSVSASVGDRLTIICRASQDINRWLAWYQQTPGNAPKLLIHSATSLQSGVPSRFSGSGSGTDFTLTINSLQPEDFATYYCQQADSFPLTFGGGTKVEIK | – | no binding |
| XPA23 Fab, heavy chain G100H (Fab, V domains shown) VH: EVQLLESGGGLVQPGGSLRLSCAASGFTFSKYFMFWVRQAPGKGLEWVSVISPSGGMTRYADSVKGRFTISRDNSKNTLYLQMNSLRAEDTAVYYCARVHYGGNSDYWGQGTLVTVSS VL: DIQMTQSPSSVSASVGDRLTIICRASQDINRWLAWYQQTPGNAPKLLIHSATSLQSGVPSRFSGSGSGTDFTLTINSLQPEDFATYYCQQADSFPLTFGGGTKVEIK | 0.06 | – |
| XPA23 Fab, heavy chain G100R (Fab, V domains shown) VH: EVQLLESGGGLVQPGGSLRLSCAASGFTFSKYFMFWVRQAPGKGLEWVSVISPSGGMTRYADSVKGRFTISRDNSKNTLYLQMNSLRAEDTAVYYCARVRYGGNSDYWGQGTLVTVSS VL: DIQMTQSPSSVSASVGDRLTIICRASQDINRWLAWYQQTPGNAPKLLIHSATSLQSGVPSRFSGSGSGTDFTLTINSLQPEDFATYYCQQADSFPLTFGGGTKVEIK | – | no binding |
| XPA23 Fab, heavy chain G102W (Fab, V domains shown) VH: EVQLLESGGGLVQPGGSLRLSCAASGFTFSKYFMFWVRQAPGKGLEWVSVISPSGGMTRYADSVKGRFTISRDNSKNTLYLQMNSLRAEDTAVYYCARVGYWGNSDYWGQGTLVTVSS VL: DIQMTQSPSSVSASVGDRLTIICRASQDINRWLAWYQQTPGNAPKLLIHSATSLQSGVPSRFSGSGSGTDFTLTINSLQPEDFATYYCQQADSFPLTFGGGTKVEIK | – | no binding |
| XPA23 Fab, heavy chain G100S (Fab, V domains shown) VH: EVQLLESGGGLVQPGGSLRLSCAASGFTFSKYFMFWVRQAPGKGLEWVSVISPSGGMTRYADSVKGRFTISRDNSKNTLYLQMNSLRAEDTAVYYCARVSYGGNSDYWGQGTLVTVSS VL: DIQMTQSPSSVSASVGDRLTIICRASQDINRWLAWYQQTPGNAPKLLIHSATSLQSGVPSRFSGSGSGTDFTLTINSLQPEDFATYYCQQADSFPLTFGGGTKVEIK | 2.8 | – |
| XPA23 Fab, heavy chain G103E (Fab, V domains shown) VH: EVQLLESGGGLVQPGGSLRLSCAASGFTFSKYFMFWVRQAPGKGLEWVSVISPSGGMTRYADSVKGRFTISRDNSKNTLYLQMNSLRAEDTAVYYCARVGYGENSDYWGQGTLVTVSS VL: DIQMTQSPSSVSASVGDRLTIICRASQDINRWLAWYQQTPGNAPKLLIHSATSLQSGVPSRFSGSGSGTDFTLTINSLQPEDFATYYCQQADSFPLTFGGGTKVEIK | – | no binding |
| XPA23 Fab, heavy chain G100W (Fab, V domains shown) VH: EVQLLESGGGLVQPGGSLRLSCAASGFTFSKYFMFWVRQAPGKGLEWVSVISPSGGMTRYADSVKGRFTISRDNSKNTLYLQMNSLRAEDTAVYYCARVWYGGNSDYWGQGTLVTVSS VL: DIQMTQSPSSVSASVGDRLTIICRASQDINRWLAWYQQTPGNAPKLLIHSATSLQSGVPSRFSGSGSGTDFTLTINSLQPEDFATYYCQQADSFPLTFGGGTKVEIK | 0.05 | – |
| XPA23 Fab, heavy chain G100Y (Fab, V domains shown) VH: EVQLLESGGGLVQPGGSLRLSCAASGFTFSKYFMFWVRQAPGKGLEWVSVISPSGGMTRYADSVKGRFTISRDNSKNTLYLQMNSLRAEDTAVYYCARVYYGGNSDYWGQGTLVTVSS VL: DIQMTQSPSSVSASVGDRLTIICRASQDINRWLAWYQQTPGNAPKLLIHSATSLQSGVPSRFSGSGSGTDFTLTINSLQPEDFATYYCQQADSFPLTFGGGTKVEIK | 0.09 | – |
| XPA23 Fab, heavy chain G56W (Fab, V domains shown) VH: EVQLLESGGGLVQPGGSLRLSCAASGFTFSKYFMFWVRQAPGKGLEWVSVISPSGWMTRYADSVKGRFTISRDNSKNTLYLQMNSLRAEDTAVYYCARVGYGGNSDYWGQGTLVTVSS VL: DIQMTQSPSSVSASVGDRLTIICRASQDINRWLAWYQQTPGNAPKLLIHSATSLQSGVPSRFSGSGSGTDFTLTINSLQPEDFATYYCQQADSFPLTFGGGTKVEIK | 1.51 | – |
| XPA23 Fab, heavy chain G102E (Fab, V domains shown) VH: EVQLLESGGGLVQPGGSLRLSCAASGFTFSKYFMFWVRQAPGKGLEWVSVISPSGGMTRYADSVKGRFTISRDNSKNTLYLQMNSLRAEDTAVYYCARVGYEGNSDYWGQGTLVTVSS VL: DIQMTQSPSSVSASVGDRLTIICRASQDINRWLAWYQQTPGNAPKLLIHSATSLQSGVPSRFSGSGSGTDFTLTINSLQPEDFATYYCQQADSFPLTFGGGTKVEIK | – | no binding |
| XPA23 Fab, heavy chain G100F (Fab, V domains shown) VH: EVQLLESGGGLVQPGGSLRLSCAASGFTFSKYFMFWVRQAPGKGLEWVSVISPSGGMTRYADSVKGRFTISRDNSKNTLYLQMNSLRAEDTAVYYCARVFYGGNSDYWGQGTLVTVSS VL: DIQMTQSPSSVSASVGDRLTIICRASQDINRWLAWYQQTPGNAPKLLIHSATSLQSGVPSRFSGSGSGTDFTLTINSLQPEDFATYYCQQADSFPLTFGGGTKVEIK | – | no binding |
| XPA23 Fab, heavy chain G102Q (Fab, V domains shown) VH: EVQLLESGGGLVQPGGSLRLSCAASGFTFSKYFMFWVRQAPGKGLEWVSVISPSGGMTRYADSVKGRFTISRDNSKNTLYLQMNSLRAEDTAVYYCARVGYQGNSDYWGQGTLVTVSS VL: DIQMTQSPSSVSASVGDRLTIICRASQDINRWLAWYQQTPGNAPKLLIHSATSLQSGVPSRFSGSGSGTDFTLTINSLQPEDFATYYCQQADSFPLTFGGGTKVEIK | – | no binding |
| XPA23 Fab, heavy chain G103D (Fab, V domains shown) VH: EVQLLESGGGLVQPGGSLRLSCAASGFTFSKYFMFWVRQAPGKGLEWVSVISPSGGMTRYADSVKGRFTISRDNSKNTLYLQMNSLRAEDTAVYYCARVGYGDNSDYWGQGTLVTVSS VL: DIQMTQSPSSVSASVGDRLTIICRASQDINRWLAWYQQTPGNAPKLLIHSATSLQSGVPSRFSGSGSGTDFTLTINSLQPEDFATYYCQQADSFPLTFGGGTKVEIK | – | no binding |
